Measured values published in paper PMC4306524 (Molecular Cell, 2015).

T1: Bs Smc (Bacillus subtilis, UniProt P51834 1-1186)
T1 sequence: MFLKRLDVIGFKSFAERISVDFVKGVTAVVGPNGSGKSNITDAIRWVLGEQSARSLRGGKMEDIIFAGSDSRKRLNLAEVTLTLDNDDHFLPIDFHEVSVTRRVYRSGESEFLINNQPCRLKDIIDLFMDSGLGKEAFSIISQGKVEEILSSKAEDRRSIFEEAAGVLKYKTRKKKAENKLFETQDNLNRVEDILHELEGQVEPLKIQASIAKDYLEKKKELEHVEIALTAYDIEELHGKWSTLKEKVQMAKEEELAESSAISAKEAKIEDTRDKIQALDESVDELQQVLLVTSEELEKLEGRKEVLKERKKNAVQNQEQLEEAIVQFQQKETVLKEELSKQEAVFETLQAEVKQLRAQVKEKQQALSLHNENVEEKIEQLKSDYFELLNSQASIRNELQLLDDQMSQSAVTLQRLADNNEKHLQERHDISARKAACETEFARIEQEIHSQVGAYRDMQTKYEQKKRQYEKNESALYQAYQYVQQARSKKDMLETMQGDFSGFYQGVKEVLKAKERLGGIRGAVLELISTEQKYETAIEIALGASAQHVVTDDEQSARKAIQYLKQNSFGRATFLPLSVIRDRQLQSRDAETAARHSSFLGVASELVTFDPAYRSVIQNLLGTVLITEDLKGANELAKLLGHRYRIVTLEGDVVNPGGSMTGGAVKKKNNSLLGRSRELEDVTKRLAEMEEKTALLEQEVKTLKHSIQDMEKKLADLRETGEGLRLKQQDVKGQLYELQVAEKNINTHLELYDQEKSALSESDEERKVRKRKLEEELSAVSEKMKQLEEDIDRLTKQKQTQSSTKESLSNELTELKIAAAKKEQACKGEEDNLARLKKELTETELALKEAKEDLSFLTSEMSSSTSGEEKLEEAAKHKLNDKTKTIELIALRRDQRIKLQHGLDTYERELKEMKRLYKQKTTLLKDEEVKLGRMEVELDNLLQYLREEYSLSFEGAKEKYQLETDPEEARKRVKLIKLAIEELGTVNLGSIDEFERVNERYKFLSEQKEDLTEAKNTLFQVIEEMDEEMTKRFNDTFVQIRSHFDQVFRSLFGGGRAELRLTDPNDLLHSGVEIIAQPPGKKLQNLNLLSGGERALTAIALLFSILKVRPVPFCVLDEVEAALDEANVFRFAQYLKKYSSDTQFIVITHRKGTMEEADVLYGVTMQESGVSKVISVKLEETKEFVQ

T2: ScSmc2H-CC110;ScSmc4H-CC110 (Saccharomyces cerevisiae?;Saccharomyces …, UniProt P38989;Q12267 396-792;555-951, |)
T2 sequence 1: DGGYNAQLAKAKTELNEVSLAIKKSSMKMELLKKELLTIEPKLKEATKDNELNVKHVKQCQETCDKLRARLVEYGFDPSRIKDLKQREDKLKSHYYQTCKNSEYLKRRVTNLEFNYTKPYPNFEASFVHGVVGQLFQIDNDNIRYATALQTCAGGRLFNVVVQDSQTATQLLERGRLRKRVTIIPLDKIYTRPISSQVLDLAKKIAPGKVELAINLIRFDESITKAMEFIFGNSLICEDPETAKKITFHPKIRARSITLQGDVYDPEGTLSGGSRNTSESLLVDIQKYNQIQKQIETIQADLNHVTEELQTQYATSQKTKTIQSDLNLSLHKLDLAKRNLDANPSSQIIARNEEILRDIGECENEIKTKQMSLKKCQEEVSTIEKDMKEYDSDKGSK
T2 sequence 2: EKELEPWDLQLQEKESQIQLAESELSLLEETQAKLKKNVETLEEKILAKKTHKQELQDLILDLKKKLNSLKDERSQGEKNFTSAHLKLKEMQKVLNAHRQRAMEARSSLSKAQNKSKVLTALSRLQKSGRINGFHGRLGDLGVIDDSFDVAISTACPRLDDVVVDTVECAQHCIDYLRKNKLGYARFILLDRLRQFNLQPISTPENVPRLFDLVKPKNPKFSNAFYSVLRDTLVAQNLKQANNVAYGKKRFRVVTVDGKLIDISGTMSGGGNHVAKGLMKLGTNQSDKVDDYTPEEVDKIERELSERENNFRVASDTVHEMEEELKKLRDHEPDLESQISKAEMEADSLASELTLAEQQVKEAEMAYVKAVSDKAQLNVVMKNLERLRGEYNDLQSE

T3: BsSmcH-CC8 (Bacillus subtilis, UniProt P51834 489-680)
T3 sequence: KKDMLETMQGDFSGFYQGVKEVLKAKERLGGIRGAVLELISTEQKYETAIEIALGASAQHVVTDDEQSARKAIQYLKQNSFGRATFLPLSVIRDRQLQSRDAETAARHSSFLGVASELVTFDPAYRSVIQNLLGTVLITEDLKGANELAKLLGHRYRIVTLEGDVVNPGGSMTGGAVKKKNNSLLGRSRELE

T4: BsSmcH (Bacillus subtilis, UniProt P51834 498-665)
T4 sequence: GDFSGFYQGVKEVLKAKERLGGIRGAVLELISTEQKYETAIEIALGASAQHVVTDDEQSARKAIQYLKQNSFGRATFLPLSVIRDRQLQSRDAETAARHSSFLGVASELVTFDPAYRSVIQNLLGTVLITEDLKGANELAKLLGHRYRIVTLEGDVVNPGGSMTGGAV

T5: BsSmcH-CC100 (Bacillus subtilis, UniProt P51834 400-776)
T5 sequence: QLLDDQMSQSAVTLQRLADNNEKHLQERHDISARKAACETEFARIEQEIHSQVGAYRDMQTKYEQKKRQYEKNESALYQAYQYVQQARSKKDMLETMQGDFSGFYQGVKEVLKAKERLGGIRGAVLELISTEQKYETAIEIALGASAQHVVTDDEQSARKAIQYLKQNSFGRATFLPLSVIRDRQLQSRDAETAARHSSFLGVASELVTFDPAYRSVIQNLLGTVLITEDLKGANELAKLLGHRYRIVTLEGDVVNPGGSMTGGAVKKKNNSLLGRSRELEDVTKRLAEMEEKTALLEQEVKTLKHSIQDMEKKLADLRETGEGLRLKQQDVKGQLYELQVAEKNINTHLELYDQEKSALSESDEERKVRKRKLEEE

T6: Bacillus subtilis Smc protein (Bacillus subtilis, UniProt P51834 1-1186)
T6 sequence (looked up): T1 sequence

B1: ds40 (dsDNA)
DNA 1: TTAGTTGTTCGTAGTGCTCGTCTGGCTCTGGATTACCCGC
DNA 2: GCGGGTAATCCAGAGCCAGACGAGCACTACGAACAACTAA
B2: Bacillus subtilis ScpA (natural protein, UniProt P35154 1-251, looked up)
chain: MEEYQVKIDTFEGPLDLLLHLINRLEIDIYDIPVAKITEQYLLYVHTMRVLELDIASEYLVMAATLLSIKSRMLLPKQEEELFEDELLEEEDPREELIEKLIEYRKYKDAAKDLKEREEERQKSFTKPPSDLSEYAKEVKQSEQKLSVTVYDMIGAFQKVLKRKKINRPMETTITRQDIPIEARMNEIVHSLKSRGTRINFMDLFPYEQKEHLVVTFLAVLELMKNQLVLIEQEHNFSDIYITGSESIHGA
B3: Bacillus subtilis ScpB (natural protein, UniProt P35155 1-197, looked up)
chain: MGLDIVNWKAIVEALLYAAGDEGLTKKQLLTVLEIEEPELNTIMADVADEYRGDTRGIELIEYADTYMLSTKKDFAPYLKKLIEVPSKGLSQASLEVLAIVSYKQPITRAEIEEIRGVKSERILHSLVAKALLCEVGRADGPGRAILYGTTPTFLEQFGLKTLDELPPLPENAEEDVLQEEADLFFENFNQTFEDIK

Assays:
Bs Smc = biological target: T1, Bs Smc; assay: fluorescence anisotropy
[1] = biological target: T2, ScSmc2H-CC110;ScSmc4H-CC110; assay: fluorescence anisotropy
BsSmcH-CC8 = biological target: T3, BsSmcH-CC8; assay: fluorescence anisotropy
BsSmcH = biological target: T4, BsSmcH; assay: fluorescence anisotropy
BsSmcH-CC100 = biological target: T5, BsSmcH-CC100; assay: fluorescence anisotropy
[2] = biological target: T6, Bacillus subtilis Smc protein; assay: SEC-MALS
Bacillus subtilis ScpA = biological target: B2; assay: SEC-MALS
SEC-MALS = biological target: the molecule itself; assay: SEC-MALS

| binding result [2] | binding result (Bacillus subtilis ScpA) | Binder | Kd (Bs Smc) | Kd [1] | Kd (BsSmcH-CC8) | binding result (BsSmcH) | Kd (BsSmcH-CC100) | binding result (SEC-MALS) |
| --- | --- | --- | --- | --- | --- | --- | --- | --- |
| – | – | B1 | ~100 nM | ~50 nM | ~200 nM | no binding | ~100 nM | – |
| binds | – | B2 | – | – | – | – | – | – |
| binds | binds | B3 | – | – | – | – | – | binds |
